B1: mNeonGreen C-terminally fused to the native T3 targeting peptide (peptide)
chain: PLTVGSLRRGG
notes: native 11-residue targeting peptide of the M. xanthus (T3) encapsulin system; The targeting peptide is at the C-terminus of mNeonGreen; also called mNeonGreenTP (native T3 TP); native T3 TP; source: E. coli One shot BL21 (DE3) Star, pCDF-Duet1, IPTG induced before encapsulin; co-purified with encapsulin particles; not shown: mNeonGreen, N-terminal, kept
B2: Thermotoga maritima encapsulin (T1 encapsulin shell) (natural protein, T. maritima)
chain: MEFLKRSFAPLTEKQWQEIDNRAREIFKTQLYGRKFVDVEGPYGWEYAAHPLGEVEVLSDENEVVKWGLRKSLPLIELRATFTLDLWELDNLERGKPNVDLSSLEETVRKVAEFEDEVIFRGCEKSGVKGLLSFEERKIECGSTPKDLLEAIVRALSIFSKDGIEGPYTLVINTDRWINFLKEEAGHYPLEKRVEECLRGGKIITTPRIEDALVVSERGGDFKLILGQDLSIGYEDREKDAVRLFITETFTFQVVNPEALILLKF
notes: encapsulin shell protein of Thermotoga maritima, T1 icosahedral shell, 24 nm, 60 subunits; Cloned into pBAD/HisA cut with NcoI and XhoI; also called T. maritima encapsulin protein; source: E. coli One shot BL21 (DE3) Star, pBAD/HisA, L-arabinose induced; purified as assembled particles (PEG-8000 precipitation, SEC, anion exchange); copies: 60
B3: mNeonGreen C-terminally fused to the T1 consensus targeting peptide (peptide)
chain: DGSLGIGSLKG
notes: consensus targeting peptide found in T1 encapsulin systems; The targeting peptide is at the C-terminus of mNeonGreen; also called mNeonGreenTP (T1 consensus TP); T1 consensus TP; source: E. coli One shot BL21 (DE3) Star, pCDF-Duet1, IPTG induced before encapsulin; co-purified with encapsulin particles; not shown: mNeonGreen, N-terminal, kept
B4: mNeonGreen C-terminally fused to the native T1 targeting peptide (peptide)
chain: NTGGDLGIRK
notes: native targeting peptide of the T. maritima (T1) encapsulin system, from the C-terminus of the native cargo protein; The targeting peptide is at the C-terminus of mNeonGreen; also called mNeonGreenTP (native T1 TP); native T1 TP; source: E. coli One shot BL21 (DE3) Star, pCDF-Duet1, IPTG induced before encapsulin; co-purified with encapsulin particles; not shown: mNeonGreen, N-terminal, kept

What was measured:
[1] = target: T1, Myxococcus xanthus encapsulin (T3 encapsulin shell) (M. xanthus, UniProt Q1D6H4 1-287); assay: bulk fluorescence of purified encapsulin particles (loading percentage); particles loaded in E. coli and purified; 15 ug/mL in 20 mM Tris, 100 mM NaCl, pH 8 with 1 mg/mL BSA; plate reader Ex 500 nm, Em 530 nm, 20 C; loading = percentage of occupied TP binding sites (T1: 60, T3: 180), mNeonGreen standard curve; triplicates; settings: partners not purified
T1 construct: encapsulin shell protein of Myxococcus xanthus, T3 icosahedral shell, 32 nm, 180 subunits; Cloned into pBAD/HisA cut with NcoI and XhoI; also called M. xanthus encapsulin protein; source: E. coli One shot BL21 (DE3) Star, pBAD/HisA, L-arabinose induced; purified as assembled particles (PEG-8000 precipitation, SEC, anion exchange); copies: 180
T1 sequence (Q1D6H4 whole entry): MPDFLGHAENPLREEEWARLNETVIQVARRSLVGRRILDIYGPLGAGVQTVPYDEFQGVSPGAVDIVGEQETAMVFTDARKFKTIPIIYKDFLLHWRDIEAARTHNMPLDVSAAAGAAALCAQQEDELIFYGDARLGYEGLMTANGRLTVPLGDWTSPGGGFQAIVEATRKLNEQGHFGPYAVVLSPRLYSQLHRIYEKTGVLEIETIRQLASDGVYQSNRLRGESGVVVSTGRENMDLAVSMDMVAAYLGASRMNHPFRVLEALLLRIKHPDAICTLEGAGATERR

[2] = target: the molecule itself; assay: negative stain transmission electron microscopy; purified particles, 1 mg/mL in low salt buffer, uranyl formate stain, 80 keV
[3] = target: B2; assay: bulk fluorescence of purified encapsulin particles (loading percentage); particles loaded in E. coli and purified; 15 ug/mL in 20 mM Tris, 100 mM NaCl, pH 8 with 1 mg/mL BSA; plate reader Ex 500 nm, Em 530 nm, 20 C; loading = percentage of occupied TP binding sites (T1: 60, T3: 180), mNeonGreen standard curve; triplicates; settings: partners not purified

Row | cargo proteins per shell [3] [cargo proteins per shell] | Binder | also measured
1 |  | B1 | cargo proteins per shell [1]: ~45 cargo proteins per shell
2 |  | B2 | binding result [2]: binds
3 | ~2 | B3 | 
4 | ~2 | B4 | 

Source: paper PMC7925596, “Exploring targeting peptide-shell interactions in encapsulin nanocompartments” (Scientific Reports, 2021)
